Data on one protein can be found in paper PMC4188072, “Structure of a short-chain dehydrogenase/reductase (SDR) within a genomic island from a clinical strain of Acinetobacter baumannii” (Acta Crystallographica. Section F, Structural Biology …, 2014).

This series deals with the molecule itself. Briefly: SEC; Superdex G200 10/300 column, 50 mM HEPES buffer pH 7.5, 300 mM NaCl, 5% (v/v) glycerol; native mass 120 kDa against a 30 kDa band on SDS-PAGE.

B1: SDR-WM99c short-chain dehydrogenase/reductase from Acinetobacter baumannii WM99c (enzyme, A. baumannii (strain WM99c))
chain: MNIFDVKDKYILITGASSGLGHHIAELFAKEGANIVICARRLERLKELESHIKNEYGVQVYTFALDVNDRSAVKDMLSSLEAEGVTIDVLINNAGVSDTKRFLDYNDEDWDKIVDTNLKAPWQCAQEVVQHMIKAERKGSIINITSILSQSTNLGVSPYCASKAGLRHLTEVMAVELARFGINVNAIAPGYMITEINEEYLTSEVGQQLLKKIPTRKFVEFDDLNGPLLLLASQAGQGITGIEIKVDGGHSAAPI
modifications: selenomethionine (cells grown in selenomethionine medium; Se sites located in the crystal)
notes: SDR-WM99c, hypothetical protein encoded in genomic island GI_12 of A. baumannii strain WM99c; total chain length 255 residues; also called SDR-WM99c dehydrogenase; source: E. coli BL21 (DE3) pLysS, grown in selenomethionine medium, purified (Ni-NTA); not shown: His6, N-terminal, kept
In the case of B1, the stoichiometry N (commonly the number of molecules, sites or subunits per partner or assembly) amounted to 4.
